Molecular target: T1, wild-type EGFR (epidermal growth factor receptor) (UniProt P00533 25-1210)
T1 construct: EGFR, wild type, expressed from the plasmid pcDNA3.1-EGFR; Probably the whole human receptor, expressed in cells that have no EGFR of their own; source: MDA-MB-435, transfected (pcDNA3.1-EGFR), in lysate
Test: co-IP; lysates of MDA-MB-435 cells transfected with EGFR plasmids, immunoprecipitated with the anti-EGFR antibody IMC-C225; western blot with the anti-S2R^PGRMC1 antibody PGR-UK1; representative of three independent experiments
Settings: partners not purified

fold co-precipitated, wild-type EGFR against the EGFR-Δ747-749/A750P mutant: 2.4 fold
B1: S2R^PGRMC1 (sigma-2 receptor / progesterone receptor membrane component 1) (natural protein)
chain: not shown
notes: PGRMC1 (progesterone receptor membrane component 1), endogenous in MDA-MB-435 human breast cancer cells, detected with the antibody PGR-UK1; source: endogenous, MDA-MB-435 lysate

From paper PMC4278327, “Pathways driving the endocytosis of mutant and wild-type EGFR in cancer” (Oncoscience, 2014)
